The results in this text go back to the DeepSol protein solubility set.

A short description of the data set: soluble on expression in E. coli; label from the status in PepcDB or PDB records.
With “MSLYRELMQKKNVRPYVLMARFGLEKENQRSTREGLLATTEHPTVFGNRSYHPYIQTDFSETQLELITPVANSGTEMLRFLDAIHDVARRSIPEDEMLWPLSMPPQLPTKDEEIKIAKLDQYDAVLYRRYLAKEYGKRKQMVSGIHFNFEYDQALIQQLYDEQSEVTDCKQFKTKVYMKVARNFLRYRWLITYLFGASPVSEDRYFRVYDDQPQEPVRSIRNSTYGYRNHDNVKVSYASLERYLEDIHRMVENGLLSEEKEFYAPVRLRGGKQMSDLPKTGIRYIELRNLDLNPFSRLGIVEDTVDFLHYFMLYLLWTDEKEEADEWVKTGDIFNEQVALGHPHETIKLIAEGDRIFSEMIDMLDALGIRKGKEVVGKYYQQLRNPQDTVSGKMWTIIQENSNSELGNIFGNQYQSMAFERPYQLAGFREMELSTQIFLFDAIQKGLEIEILDEQEQFLKLQHGEHIEYVKNANMTSKDNYVVPLIMENKTVTKKILSAAGFHVPGGEEFSSFIEAQEAHLRYANKAFVVKPKSTNYGLGITIFKEGASLEDFTEALRIAFKEDTAVLIEEFLPGTEYRFFVLDNDVKAIMLRVPANVTGDGKHTVEELVAAKNSDPLRGTNHRAPLELIQLNDLEKLMLKEQGLTIYSVPEKEQIVYLRENSNVSTGGDSIDMTDVIDDSYKQIAIEAVAALGAKICGIDLIIPDKDVKGTRDSLTYGIIEANFNPAMHMHVYPYAGQGRRLTMDVLKLLYPEVVQEGGSHHHHHH”, the “soluble on expression in E. coli” value is recorded as “soluble”. The entry for “MSLYRHIPLVALSLFSSLFLAACGNGTPPPAAARPAIVVQPQPAGEVSQAFPGEIRARHEPELAFRIGGKVIRRLVEVGERVKKDQPLAELDPQDVRLQLEAARAQVSAAEANLQTVRAEYRRYRTLLDRNLVSHSQFENIQNSYRAGEARLKQIRAEFNVADNQAGYAVLRSPQDGVIASRRVEVGQVVAAGQTVFSLAADGEREVLIGLPEHSFERFRIGQPVSVELWSQRDRRFAGHIRELSPAADPQSRTFAARVAFDDRATPAELGQSARVYVAAAEAVPLSVPLSALTAEAGQAFVWVVEPGSSTLRRQPVRTGPYAEDRVPVLEGLKAGDWVVATGVQVLREGQQVRPIDRANRTVKLAAKEEGHHHHHH” is “soluble”; for “MSNAREIRSKVQSVKNTQKITGAMELVAASKMRGAIVKMNNVRPYVESANTIIKNVTAASIDYPNPYLFDRDVKRVGYIVISTDRGLCGGLNINLFKHVLKEIKNNIEDRVGVDVCVIGSKAENFFAKLKDVNIVATAHYNDKDKEGSIRAIGGAVKVMLDKFTAGEIDRLYMSSNQFVSTIKQRPRLQTLLPIQDIFSAEEIKANKEKATKGHWDYIYERDIEEVLNALFIRYIEAQVRGAILENAACEQAARMMAMKNATDNASDIIDQLKLDYNKVRQAMITQELAEICSGAAAV” it is “not soluble”.

“MSNIVYLTVTGEQQGSISAGCGTSESTGNRWQSGHEDEIFTFSLLNNINNTGLGSQFHGITFCKLIDKSTPLFINSINNNEQLFMGFDFYRINRFGRLEKYYYIQLRGAFLSAIHHQIIENQLDTETITISYEFILCQHLIANTEFSYLALPENYNRLFLPNSKNQTNNRFKTLNSKAIGRLLAAGGVYNGNIEGFRDTAEKLGGDAIKGYDQILNEKTAGIAIATASILLTKRSNVDTYTEINSYLGKLRGQQKLLDGIDIIEIIYIKRPSKDLANLRKEFNKTVRKNFLIKLAKTSEASGRFNAEDLLRMRKGNVPLNYNVHHKLSLDDGGTNDFENLVLIENEPYHKVFTNMQSRIAKGILVGESKITPWAIPSGSIYPPMKNIMDHTK”: the “soluble on expression in E. coli” value is “not soluble”. For “MSNIYDWSLKADENAHSDNIINWAEGQPPSSVNDSARAMMQRVREYLADNGGSLDSTFIVNAEDKTTSIIVTTASPIEEYKNDIIIRFKAGGVNVGTTTVIVNNIEEKLLYKATNAGVTPLEGGELQRDAIYEMVYNKDVSMEDHGGWYLLNPTPLPPPKIETFPSGFIATFAMQEVPSGWLLCDGAVYERKDYPQLFKAIGDKWGKDSDTTFKVPDFRGMFLRGFDDGRGLDAGRQFADQQHDSIRSHTHIGTIEEAGEHTHKFQYYGVGWDSGDIGRRNPFYYRQSSTGVTQSAGAHTHDISLSPTGEAETRPVNTTVVYAIKS”, the “soluble on expression in E. coli” value was “not soluble”. Take “MSNKFHCDVCSADCTNRVRVSCAICPEYDLCVPCFSQGSYTGKHRPYHDYRIIETNSYPILCPDWGADEELQLIKGAQTLGLGNWQDIADHIGSRGKEEVKEHYLKYYLESKYYPIPDITQNIHVPQDEFLEQRRHRIESFRERPLEPPRKPMASVPSCHEVQGFMPGRLEFETEFENEAEGPVKDMVFEPDDQPLDIELKFAILDIYNSRLTTRAEKKRLLFENHLMDYRKLQAIDKKRSKEAKELYNRIKPFARVMTAQDFEEFSKDILEELHCRARIQQLQEWRSNGLTTLEAGLKYERDKQARISSFEKFGASTAASLSEGNSRYRSNSAHRSNAEYSQNYSENGGRKKNMTISDIQHAPDYALLSNDEQQLCIQLKILPKPYLVLKEVMFRELLKTGGNLSKSACRELLNIDPIKANRIYDFFQSQNWM”: the “soluble on expression in E. coli” value was “soluble”. The entry for “MSNNTKRVGSQTIELKSKPRIIATYSVVGPREGQGPLKEYFDKILQDDCNGCESFEKAESSLMITAIEGVIKKGNVKEEDVDYLFSGDLLNQLTSTNFVAREFKIPFFGVYGACSTMAESLSLSSMIMDGDFAKYAIASTSSHFSSAERQFRFPLEYGCQRKEYSQWTVTGSGAMLLGKSGDYPYVTHVTTGIVKDYGIKDADNMGAAMAPAAVDTIYKHFVDTGRKPEDYDVIATGDLGAVGKKLTEELLKEYGYDISKVYIDCGEKIFDNEKQGTFAGGSGCGCSAVVACGYLYRMLKEKKLKRVLLVSTGALLSSTSALQGESIPGIAHAVAIEYILEHHHHHH” is “soluble”. Turning to “MSNSSAHSSFGTSNDSFSSVQSVILPPVGPFGQKKRTFEYIGVTLVVDKLKLAEWMNGIGKLFGSAELRDNVTNLHMQLVPVIDTLKKVSHLSSEKTKKEIMTLIEEYKTLVVVCENMLDRMEKSADFHSTDMLNDPVLEKQE”, the “soluble on expression in E. coli” value is “not soluble”. The entry for “MSNSYEGCGDLTIFVAVALNKVIGHKNQIPWPHITHDFRFLRNGTTYIPPEVLSKNPDIQNVVIFGRKTYESIPKASLPLKNRINVILSRTVKEVPGCLVYEDLSTAIRDLRANVPHNKIFILGGSFLYKEVLDNGLCDKIYLTRLNKEYPGDTYFPDIPDTFEITAISPTFSTDFVSYDFVIYERKDCKTVFPDPPFDQLLMTGTDISVPKPKYVACPGVRIRNHEEFQYLDILADVLSHGVLKPNRTGTDAYSKFGYQMRFDLSRSFPLLTTKKVALRSIIEELLWFIKGSTNGNDLLAKNVRIWELNGRRDFLDKNGFTDREEHDLGPIYGFQWRHFGAEYLDMHADYTGKGIDQLAEIINRIKTNPNDRRLIVCSWNVSDLKKMALPPCHCFFQFYVSDNKLSCMMHQRSCDLGLGVPFNIASYSILTAMVAQVCGLGLGEFVHNLADAHIYVDHVDAVTTQIARIPHPFPRLRLNPDIRNIEDFTIDDIVVEDYVSHPPIPMAMSA” is “soluble”.

“MSNVISVENLGKKYLISHQGREPYTALRDVLTDGARAFYRRLFSPGTSQADAQAEEFWALKDVSFEVKQGDRIGIIGRNGAGKSTLLKILSRITEPTEGRVRIRGRVASLLEVGTGFHPELTGRENIFLNGAILGMNRAEIARKFDEIVAFAEIEKFLDTPVKRYSSGMYVRLAFAVAAHLEPEILIVDEVLAVGDAQFQNKCLGKMEDVSTKEGRTVLFVSHNMGAIDRLCTRAVLLERGRVRLADFTKPVIQMYLDKAKNAISAWSCSTSIPDFDGIFFESISIVNKDRKIAEVLPSNEPFSITLVVNATASLKGVQIAIRITNEQGIPILTTTNCDKAGKLQEISRGRYRYTVSLPASFLPPGYYTLIVASFVPGEKLFDGVEDKLGFCIDDMGSLATLMKDGRLGVVTPLMPWDEVRLLEHHHHHH”: the “soluble on expression in E. coli” value is “soluble”.

For the sequence “MSNVKHSKLLILGSGPAGYTAAVYAARANLKPVLVTGMQQGGQLTTTTEVENWPGDAEGLTGPALMERMKEHAERFDTEIVFDHINSVDLSSRPFRLTGDSQEYTCDALIISTGASAKYLGLESEEAFKGRGVSACATCDGFFYRNQKVAVVGGGNTAVEEALYLSNIASEVHLVHRRDSFRSEKILIDRLMDKVANGNIVLHTHRTLDEVLGDEMGVTGVRLKDTQSDMTENLDVMGVFIAIGHQPNSQIFEGQLEMKNGYIVVKSGLEGNATQTSIEGVFAAGDVMDHNYRQAITSAGTGCMAALDAERYLDSQGK”, the “soluble on expression in E. coli” value is reported as “soluble”. As for “MSNYSVSLVGPAPWGFRLQGGKDFNMPLTISSLKDGGKAAQANVRIGDVVLSIDGINAQGMTHLEAQNKIKGCTGSLNMTLQRASAAPKPEPVPVQKGEPKEVVKPVPITSPAVSKVTSTNNMAYNKAPRPFGSVSSPKVTSIPSPSSAFTPAHATTSSHASPSPVAAVTPPLFAASGLHANANLSADQSPSALSAGKTAVNVPRQPTVTSVCSETSQELAEGQRRGSQGDSKQQNGPPRKHIVERYTEFYHVPTHSDASKKRLIEDTEDWRPRTGTTQSRSFRILAQITGTEHLKESEADNTKKANNSQEPSPQLASSVASTRSMPESLDSPTSGRPGVTSLTTAAAFKPVGSTGVIKSPSWQRPNQGVPSTGRISNSAAYSGSVAPANSALGQTQPSDQDTLVQRAEHIPAGKRTPMCAHCNQVIRGPFLVALGKSWHPEEFNCAHCKNTMAYIGFVEEKGALYCELCYEKFFAPECGRCQRKILGEVINALKQTWHVSCFVCVACGKPIRNNVFHLEDGEPYCETDYYALFGTICHGCEFPIEAGDMFLEALGYTWHDTCFVCSVCCESLEGQTFFSKKDKPLCKKHAHSVNF”, the “soluble on expression in E. coli” value was “soluble”. With “MSPAQSKPVESMTVFNTEEVDTKKQPMFFGKPLGVQRYDSYKYPVFDKLTQQQLGYFWRPEEVSLQKDRGDYQQLTPEQKHIFTSNLKYQIMLDSVQGRAPGMAFAPYCSLPELEGCINVWQFMEMIHSRSYTYIIKNVYSDPSEVFDTIIKDTNILQRAESVTKSYDDFVNDAHEYDSGNAWKFAREGHPAGTLDRRELKRKLYRAIANVNILEGIRFYVSFACSFAFGENKLMEGSAKILSLISRDESQHLVITQQILKKWADGDDPEMQEIAKEEKSFVKDMFRNTVNEEKAWADYLFKEGSMIGLNARLLNNYVEWIANRRMKAIGLDPIYDQPLRNNPLPWTEHWLNSKGQQNAPQETEIESYVIGGIKQDVKGDSFAGFKL”, the “soluble on expression in E. coli” value is listed as “not soluble”.

With “MSPEYAMEGIFSVKSDVFSFGVLVLEIVSGKRNRGFHNSGQDNNLLGYTWENWKEGKGLEIVDSIIVDSSSSMSLFQPHEVLRCIQIGLLCVQERAEDRPKMSSVIVPFCTR”, the “soluble on expression in E. coli” value is recorded as “not soluble”. As for “MSPGSSTGMVSEKCGDAESKRAPYPPPLRLARRVCYPQYTQKSLDMRAQEKLVGRKRDMKMARFLAKQAKESKEMVKKAAKETTEKTTKNDSTV”, the “soluble on expression in E. coli” value is reported as “not soluble”. Regarding “MSPIEKSSKLENVCYDIRGPVLKEAKRLEEEGNKVLKLNIGNPAPFGFDAPDEILVDVIRNLPTAQGYCDSKGLYSARKAIMQHYQARGMRDVTVEDIYIGNGVSELIVQAMQALLNSGDEMLVPAPDYPLWTAAVSLSSGKAVHYLCDESSDWFPDLDDIRAKITPRTRGIVIINPNNPTGAVYSKELLMEIVEIARQHNLIIFADEIYDKILYDDAEHHSIAPLAPDLLTITFNGLSKTYRVAGFRQGWMVLNGPKKHAKGYIEGLEMLASMRLCANVPAQHAIQTALGGYQSISEFITPGGRLYEQRNRAWELINDIPGVSCVKPRGALYMFPKIDAKRFNIHDDQKMVLDFLLQEKVLLVQGTAFNWPWPDHFRIVTLPRVDDIELSLSKFARFLSGYHQL”, the “soluble on expression in E. coli” value is given as “soluble”.

“MSPTGNYLNAITNRRTIYNLKPELPQGVGLDDVKRTVHVILKNTPTAFNSQVNRAVIIVGDTHKRIWDAVASAMPTAEAKKRPESCRDEAYGSVIFFTDEGPTEKLQRDFPALAAAFPTCAAHTTGAVQIQSWTALELLGLGANLQHYNDYVKSALPQDVPIAWTVQSQLVFGVPTALPEEKTFINNVINVYH”: the “soluble on expression in E. coli” value was “soluble”.
